± gives the standard deviation of the averaged measurements.
Tested on: ATP
Experiment: switch fluorescence ratio, 500 uM ATP over buffer (Cy3 cluster intensity, sum of 5 cycles each) (fold (ratio)); higher = stronger signal-on switching upon ATP binding; sequences stand for … in TCGTCGGCAGCGTCAGATGTGTATAAGAGACAGTTTTTTTTTTTTTTTTTTTTTTTTT…TC
Conditions: aptamer strand: ATP DNA aptamer (quencher-CACCTGGGGGAGTATTGCGGAGGAAGG + anchor), 100 nM annealed; ATP concentration: 500 uM
In short: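 Clusters carrying Cy3-labelled switching strands on a modified Illumina MiSeq flow-cell were annealed to 100 nM quencher-labelled ATP aptamer and imaged in selection buffer. They were imaged again after 15 min with 500 uM ATP at 22 °C, over five buffer/ATP cycles with NaOH stripping and re-annealing in between. For each cluster, the fluorescence ratio is the summed Cy3 intensity of the target cycles divided by that of the buffer cycles, averaged per switch-domain sequence. Clusters outside 100-1000 RFU were left out.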
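Note: ATP exposure 15 min at 22 °C before imaging.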

| Sequence | switch fluorescence ratio |
| --- | --- |
| CGAAAGGGAC | 1.033 ± 0.0092 |
| CGAAAGTATA | 1.08 ± 0.075 |
| CGAAATACGG | 2.83 ± 0.18 |
| CGAAATGCTG | 1.09 ± 0.016 |
| CGAAATGTAA | 0.992 ± 0.024 |
| CGAACAGCGA | 1.27 ± 0.015 |
| CGAACAGGTT | 1.04 ± 0.02 |
| CGAACCTTCG | 2.35 ± 0.092 |
| CGAACTGCAG | 1.034 ± 0.0016 |
| CGAAGAGGGG | 0.995 ± 0.016 |
| CGAAGATGGG | 0.981 ± 0.03 |
| CGAAGCGCCC | 4.36 ± 3 |
| CGAAGGCGTA | 1.027 ± 0.0062 |
| CGAAGGCTCG | 0.99 ± 0.04 |
| CGAAGGGCTA | 1.15 ± 0.19 |
| CGAAGTTATG | 1.06 ± 0.03 |
| CGAAGTTTGG | 1.02 ± 0.02 |
| CGAATAGGCG | 0.976 ± 0.048 |
| CGAATCGGCT | 1.05 ± 0.054 |
| CGAATGGGGA | 0.992 ± 0.077 |
| CGAATGTGGG | 1.0147 ± 0.00075 |
| CGAATTCCAC | 1.024 ± 0.0099 |
| CGAATTGGTA | 0.982 ± 0.011 |

| Sequence | switch fluorescence ratio |
| --- | --- |
| CGAATTTGCC | 1.01 ± 0.065 |
| CGAATTTGTC | 1.02 ± 0.035 |
| CGACCTTTTC | 1.4 ± 0.34 |
| CGACGAACTT | 1.236 ± 0.0059 |
| CGACTAAGAG | 1.02 ± 0.025 |
| CGACTATAGG | 1 ± 0.023 |
| CGACTTGAAA | 1.04 ± 0.041 |
| CGACTTGCGT | 1.01 ± 0.012 |
| CGACTTTCAA | 1.05 ± 0.032 |
| CGAGAAATGG | 1.07 ± 0.055 |
| CGAGAAGAGT | 1.01 ± 0.053 |
| CGAGAGAGTG | 0.96 ± 0.02 |
| CGAGAGGGGG | 0.9723 ± 0.0065 |
| CGAGCAGAGT | 1.13 ± 0.021 |
| CGAGCATTTT | 1.14 ± 0.017 |
| CGAGCGACGT | 0.9863 ± 0.007 |
| CGAGCTGTTT | 1.02 ± 0.0099 |
| CGAGCTTATA | 1.38 ± 0.032 |
| CGAGGAATTT | 1.04 ± 0.043 |
| CGAGGATAGG | 0.999 ± 0.035 |
| CGAGGCGCG | 0.9537 ± 0.008 |
| CGAGGGAGGG | 0.999 ± 0.015 |
| CGAGGGCCGG | 0.9974 ± 0.0081 |

| Sequence | switch fluorescence ratio |
| --- | --- |
| CGAGGGGCTT | 0.997 ± 0.035 |
| CGAGGGGGCC | 0.97 ± 0.052 |
| CGAGGGGTTA | 1.01 ± 0.022 |
| CGAGGGGTTT | 0.984 ± 0.059 |
| CGAGGGTGTT | 1.05 ± 0.077 |
| CGAGGTGTAG | 0.98 ± 0.022 |
| CGAGGTTAAT | 1.051 ± 0.0011 |
| CGAGGTTAGG | 1.06 ± 0.062 |
| CGAGGTTATT | 1 ± 0.037 |
| CGAGGTTGGG | 1.002 ± 0.0028 |
| CGAGTAGAAT | 1.06 ± 0.065 |
| CGAGTCCTGT | 1 ± 0.02 |
| CGAGTCGGGA | 0.999 ± 0.021 |
| CGAGTGCCCA | 0.996 ± 0.033 |
| CGAGTTAAAA | 1.002 ± 0.0069 |
| CGAGTTCGGC | 0.976 ± 0.06 |
| CGAGTTGCTG | 0.988 ± 0.11 |
| CGAGTTGGGG | 1.01 ± 0.031 |
| CGAGTTTCGG | 1.011 ± 0.0073 |
| CGAGTTTTTA | 0.994 ± 0.027 |
| CGATAACATG | 0.9984 ± 0.0051 |
| CGATAACTGG | 1.05 ± 0.052 |
| CGATAATCGT | 1.002 ± 0.0098 |

| Sequence | switch fluorescence ratio |
| --- | --- |
| CGATAGGCAA | 1.66 ± 0.9 |
| CGATAGGGGT | 1.05 ± 0.074 |
| CGATAGGTAC | 1.22 ± 0.027 |
| CGATATAGTC | 0.993 ± 0.049 |
| CGATATTTGG | 1 ± 0.02 |
| CGATCGGTTG | 0.9499 ± 0.0033 |
| CGATCTTTAC | 1.29 ± 0.017 |
| CGATGGCTGG | 0.976 ± 0.027 |
| CGATGGGGTG | 0.998 ± 0.025 |
| CGATGGTCGT | 0.975 ± 0.028 |
| CGATGGTTTT | 1.01 ± 0.044 |
| CGATGTAGTT | 0.995 ± 0.014 |
| CGATGTATAA | 1.01 ± 0.025 |
| CGATGTCAGC | 1.073 ± 0.0036 |
| CGATGTTTTG | 0.969 ± 0.031 |
| CGATTATAGG | 1.003 ± 0.0096 |
| CGATTCGAGG | 1.03 ± 0.011 |
| CGATTGGGAC | 1.01 ± 0.02 |
| CGATTGGGTA | 0.968 ± 0.038 |
| CGATTTAAGG | 0.9947 ± 0.0063 |
| CGATTTGACT | 1.02 ± 0.037 |
| CGATTTTTTT | 1.02 ± 0.05 |
| CGCAAAAGCA | 1.2 ± 0.027 |

| Sequence | switch fluorescence ratio |
| --- | --- |
| CGCAATGGGG | 2.98 ± 0.53 |
| CGCAATTCGA | 3.57 ± 1.3 |
| CGCACCTGAG | 1.23 ± 0.044 |
| CGCACCTGTA | 1.04 ± 0.037 |
| CGCAGAAACG | 1 ± 0.036 |
| CGCAGAGCGA | 1.02 ± 0.0082 |
| CGCAGCGGTT | 1.49 ± 0.041 |
| CGCATAGGAC | 3.16 ± 0.28 |
| CGCATAGGGT | 1.13 ± 0.012 |
| CGCATAGTTG | 1.06 ± 0.024 |
| CGCATGAGGC | 1.18 ± 0.045 |
| CGCATGCTGG | 1.02 ± 0.024 |
| CGCATGGGCC | 1.4 ± 0.019 |
| CGCATGTCGA | 1.03 ± 0.025 |
| CGCATGTTTC | 1.2 ± 0.15 |
| CGCATTGGT | 1.31 ± 0.016 |
| CGCATTTAAG | 1.18 ± 0.046 |
| CGCATTTTGT | 1.06 ± 0.0043 |
| CGCCAGATTT | 0.9963 ± 0.0072 |
| CGCCATAGTG | 1.01 ± 0.039 |
| CGCCATTACG | 1.65 ± 0.024 |
| CGCCCAAAGG | 1.13 ± 0.11 |
| CGCCCCGAGA | 1.02 ± 0.015 |

| Sequence | switch fluorescence ratio |
| --- | --- |
| CGCCCCGCTG | 1.13 ± 0.071 |
| CGCCCCTGAA | 0.997 ± 0.017 |
| CGCCCGCACG | 1.93 ± 0.5 |
| CGCCGATTAA | 1.03 ± 0.062 |
| CGCCGCGTCA | 1 ± 0.038 |
| CGCCGGGAGG | 0.989 ± 0.073 |
| CGCCTAAGTT | 1 ± 0.036 |
| CGCCTAGTCG | 1.02 ± 0.074 |
| CGCCTCAGGT | 1.46 ± 0.14 |
| CGCCTCGGGC | 1.02 ± 0.016 |
| CGCCTGGGCA | 1.02 ± 0.043 |
| CGCGAAAATG | 1.02 ± 0.022 |
| CGCGACGGGG | 1.03 ± 0.029 |
| CGCGACTGGT | 0.994 ± 0.014 |
| CGCGACTTAA | 1.044 ± 0.0047 |
| CGCGACTTTC | 1.09 ± 0.021 |
| CGCGAGAGGA | 1.01 ± 0.016 |
| CGCGAGCGTT | 0.995 ± 0.049 |
| CGCGCCGTTG | 1 ± 0.011 |
| CGCGCCTGTG | 1.17 ± 0.23 |
| CGCGCGGGCT | 0.998 ± 0.051 |
| CGCGCGTCGG | 0.978 ± 0.021 |
| CGCGCTGCTG | 1.03 ± 0.029 |

| Sequence | switch fluorescence ratio |
| --- | --- |
| CGCGGAGCTT | 1.03 ± 0.033 |
| CGCGGGAAGG | 1.02 ± 0.036 |
| CGCGGGGAAG | 0.98 ± 0.053 |
| CGCGGGGGAT | 1.03 ± 0.067 |
| CGCGGGGGCG | 0.991 ± 0.025 |
| CGCGGGGGTA | 0.995 ± 0.03 |
| CGCGGTGCGG | 1.005 ± 0.0076 |
| CGCGGTGTGG | 1.03 ± 0.022 |
| CGCGGTTGCG | 0.9668 ± 0.0054 |
| CGCGTAATAT | 2.07 ± 0.069 |
| CGCGTACGTT | 1.05 ± 0.018 |
| CGCGTAGGGC | 1.04 ± 0.016 |
| CGCGTGCAGG | 1.02 ± 0.033 |
| CGCGTGGTA | 1.07 ± 0.013 |
| CGCGTTCATT | 0.972 ± 0.038 |
| CGCGTTCGCT | 1.025 ± 0.0083 |
| CGCGTTTCCC | 1.27 ± 0.038 |
| CGCTAACTTG | 1.01 ± 0.047 |
| CGCTACGTGT | 1.02 ± 0.038 |
